“Also recorded” adds a separate entry of the source.
Tests used:
Type in all cases: cell-based
[1] = target: macrophage stimulating protein (MSP) (Homo sapiens, UniProt P26927); assay: Mouse E17/18 trigeminal neuron survival assay, MSP; conditions: MSP 600 pM; antibody up to 200 nM; 48 hours
Protocol: The ability of antibody E3 to specifically block NGF activity was evaluated by measurement of the capacity of the antibody to inhibit survival of mouse E17/18 trigeminal neurons in vitro in the presence of saturating concentrations of NGF, the NGF-related neurotrophin NT3, or the NGF-unrelated neurotrophic factor, macrophage stimulating protein (MSP). The survival of mouse E17/18 trigeminal neurons is a sensitive assay to evaluate the NGF-blocking activity of anti-NGF antagonist antibodies because NGF is required to support survival of these neurons at higher concentrations than the level of NGF required to support survival of E13.5 TG neurons).
(§1) The survival assay was conducted as follows: time mated pregnant Swiss Webster female mice were euthanised by CO2 inhalation. The uterine horns were removed and the embryos (at embryonic day 17 or 18) were extracted and decapitated. The trigeminal and nodose ganglia were dissected and cleaned. The ganglia were then trypsinised, mechanically dissociated and plated at a density of 100-300 cells per well in defined, serum-free medium in 4-well plates (Greiner) coated with poly-L-ornithine and laminin.
E17/18 trigeminal neurons were grown either without added neurotrophic factors (negative control) or in the presence of saturating concentrations of human NGF (400 pM and 15 pM) (positive control); NT3 (400 pM); or MSP (600 pM). […]

[2] = target: T1, BDNF (Homo sapiens, UniProt P23560); assay: Mouse E17 nodose neuron survival assay, BDNF; conditions: BDNF 400 pM; antibody up to 200 nM; 48 hours
T1 sequence (P23560 129-247): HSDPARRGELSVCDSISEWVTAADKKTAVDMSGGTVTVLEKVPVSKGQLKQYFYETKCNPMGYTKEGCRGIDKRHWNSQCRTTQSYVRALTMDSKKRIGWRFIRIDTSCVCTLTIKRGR
Protocol: (§2) The ability of antibody E3 to specifically block NGF activity was also evaluated by measurement of the capacity of the antibody to inhibit survival of mouse nodose E17 neurons in the presence of saturating concentrations of BDNF or NT4/5. Survival of nodose neurons is supported by BDNF or NT4/5; therefore, survival of these neurons is a sensitive assay to evaluate the BDNF or NT4/5-blocking ability of the anti-NGF antagonist antibody.
as §1
(§3) E17 nodose neurons were grown either in the absence of added neurotrophic factors (negative control), or with saturating concentrations of BDNF (400 pM) (positive control) or NT4/5 (400 pM) or NGF unrelated growth factor […]. High concentrations of neurotrophins were used, as the goal of this experiment was to test specificity of the antibodies. […]

[3] = target: T2, NT4/5 (Homo sapiens, UniProt P34130); assay: Mouse E17 nodose neuron survival assay, NT4/5; conditions: NT4/5 400 pM; antibody up to 200 nM; 48 hours
T2 sequence (P34130 81-210): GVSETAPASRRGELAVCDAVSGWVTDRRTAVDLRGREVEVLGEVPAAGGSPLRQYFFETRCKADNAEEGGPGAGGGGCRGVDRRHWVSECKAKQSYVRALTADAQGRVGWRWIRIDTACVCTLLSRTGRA
Protocol: as §2, §1, §3

[4] = target: LIF (Homo sapiens, UniProt P15018); assay: Mouse E17 nodose neuron survival assay, LIF; conditions: LIF 2.5 nM; antibody up to 200 nM; 48 hours
LIF, sequence (P15018 23-202, species assumed): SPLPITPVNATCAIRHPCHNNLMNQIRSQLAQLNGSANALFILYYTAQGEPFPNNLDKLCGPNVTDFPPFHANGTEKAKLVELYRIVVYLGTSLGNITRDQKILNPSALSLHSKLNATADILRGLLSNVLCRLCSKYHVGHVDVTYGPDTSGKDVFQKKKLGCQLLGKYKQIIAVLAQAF
Protocol: as §2, §1, §3

macrophage stimulating protein (MSP), sequence (P26927 19-711, species assumed): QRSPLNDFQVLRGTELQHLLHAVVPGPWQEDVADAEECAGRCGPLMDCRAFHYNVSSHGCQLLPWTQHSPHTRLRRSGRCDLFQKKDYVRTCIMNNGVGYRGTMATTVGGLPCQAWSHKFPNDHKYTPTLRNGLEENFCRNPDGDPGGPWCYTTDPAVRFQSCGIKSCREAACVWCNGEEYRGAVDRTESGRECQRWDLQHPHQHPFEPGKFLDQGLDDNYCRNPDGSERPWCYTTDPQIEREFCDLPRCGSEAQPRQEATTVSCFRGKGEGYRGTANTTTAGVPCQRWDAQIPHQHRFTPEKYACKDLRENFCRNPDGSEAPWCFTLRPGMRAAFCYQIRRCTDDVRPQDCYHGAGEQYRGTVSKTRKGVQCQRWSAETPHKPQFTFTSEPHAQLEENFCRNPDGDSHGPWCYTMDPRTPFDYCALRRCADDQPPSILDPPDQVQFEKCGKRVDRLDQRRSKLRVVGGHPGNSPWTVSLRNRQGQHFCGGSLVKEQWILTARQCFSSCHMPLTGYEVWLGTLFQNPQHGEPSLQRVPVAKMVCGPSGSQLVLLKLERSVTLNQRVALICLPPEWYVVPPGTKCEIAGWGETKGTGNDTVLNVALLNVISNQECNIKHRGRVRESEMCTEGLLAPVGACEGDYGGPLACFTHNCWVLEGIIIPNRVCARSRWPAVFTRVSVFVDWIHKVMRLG

B1: E3: humanized, affinity matured anti-NGF antagonist antibody; variable regions SEQ ID NO:1 and 2; human IgG2a (A330P331 to S330S331), kappa (antibody, V domains shown)
VH: QVQLQESGPGLVKPSETLSLTCTVSGFSLIGYDLNWIRQPPGKGLEWIGIIWGDGTTDYNSAVKSRVTISKDTSKNQFSLKLSSVTAADTAVYYCARGGYWYATSYYFDYWGQGTLVTVS
VL: DIQMTQSPSSLSASVGDRVTITCRASQSISNNLNWYQQKPGKAPKLLIYYTSRFHSGVPSRFSGSGSGTDFTFTISSLQPEDIATYYCQQEHTLPYTFGQGTKLEIKRT
modifications: human IgG2a constant (A330S/P331S) and kappa constant missing
survival of E17/18 trigeminal neurons promoted by MSP [1]: had no effect; also recorded: did not inhibit
survival of E17 nodose neurons promoted by BDNF [2]: had no effect; also recorded: did not inhibit
survival of E17 nodose neurons promoted by NT4/5 [3]: had no effect; also recorded: did not inhibit
survival of E17 nodose neurons promoted by LIF [4]: had no effect; also recorded: did not inhibit

Source: patent US20080182978A1, “ANTI-NGF ANTIBODIES AND METHODS USING SAME” (RINAT NEUROSCIENCE CORP, priority 2002, published 2008)
